In publication PMC10557622 (bioRxiv, 2023):

Tests used:
[1] = target: 6xHis-MBP-CENP-C 1-600-SpyCatcher (UniProt Q03188 1-600); test: BLI
CENP-A/H4 = CENP-A/H4 (UniProt P49450;P62805); test: BLI

Sequence of 6xHis-MBP-CENP-C 1-600-SpyCatcher (Q03188 1-600): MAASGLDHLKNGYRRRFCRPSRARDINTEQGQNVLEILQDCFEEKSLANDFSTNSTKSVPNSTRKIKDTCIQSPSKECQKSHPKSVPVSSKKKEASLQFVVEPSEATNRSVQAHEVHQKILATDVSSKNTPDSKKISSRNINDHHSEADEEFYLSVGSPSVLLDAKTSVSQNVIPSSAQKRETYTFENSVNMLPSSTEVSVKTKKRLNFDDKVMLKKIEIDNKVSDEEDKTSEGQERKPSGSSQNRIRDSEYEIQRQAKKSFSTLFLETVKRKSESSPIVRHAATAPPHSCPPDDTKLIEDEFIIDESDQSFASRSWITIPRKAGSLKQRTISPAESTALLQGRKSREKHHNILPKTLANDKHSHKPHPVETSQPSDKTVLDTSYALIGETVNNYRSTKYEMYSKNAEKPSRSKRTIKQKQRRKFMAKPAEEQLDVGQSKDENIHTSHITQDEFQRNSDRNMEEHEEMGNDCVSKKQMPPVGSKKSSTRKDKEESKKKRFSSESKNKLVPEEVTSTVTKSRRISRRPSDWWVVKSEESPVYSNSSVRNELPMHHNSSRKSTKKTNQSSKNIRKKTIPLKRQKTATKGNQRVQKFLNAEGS

Binder	Kd [1] [nM]	Kd (CENP-A/H4) [nM]
recombinant Human EMD protein with N-terminal His-tag (natural protein) MDNYADLSDTELTTLLRRYNIPHGPVVGSTRRLYEKKIFEYETQRRRLSPPSSSAASSYSFSDLNSTRGDADMYDLPKKEDALLYQSKGYNDDYYEESYFTTRTYGEPESAGPSRAVRQSVTSFPDADAFHHQVHDDDLLSSSEEECKDRERPMYGRDSAYQSITHYRPVSASRSSLDLSYYPTSSSTSFMSSSSSSSSWLTRRAIRPENRAPGAGLGQDRQVPLWGQLLLFLVFVIVLFFIYHFMQAEEGNPF	404	137
purified BANF1 (natural protein) MTTSQKHRDFVAEPMGEKPVGSLAGIGEVLGKKLEERGFDKAYVVLGQFLVLKKDEDLFREWLKDTCGANAKQSRDCFGCLREWCDAFL		290
